According to US20230381229A1:
Residue numbers refer to the chain shown, from its start. Names and notes keep the numbering of the source.

B1: variant PD-L1 ECD-Fc I36S, M41K, M97L, K144Q, R195G, E200K, H202Q, L206F (Fc fusion)
chain: FTVTVPKDLYVVEYGSNMTIECKFPVEKQLDLAALSVYWEKEDKNIIQFVHGEEDLKVQHSSYRQRARLLKDQLSLGNAALQITDVKLQDAGVYRCLISYGGADYKRITVKVNAPYNKINQRILVVDPVTSEHELTCQAEGYPQAEVIWTSSDHQVLSGKTTTTNSKREEKLFNVTSTLRINTTTNEIFYCTFRGLDPEKNQTAEFVIPELPLAHPPNER
B2: variant PD-L1 ECD-Fc K57R, S99G, L124S, K144Q (Fc fusion)
chain: B1 chain with S36I, K41M, K57R, L97M, S99G, L124S, G195R, K200E, Q202H, F206L
B3: variant PD-L1 ECD-Fc I36T, M97L, Q155H, F193S, N201Y (Fc fusion)
chain: B1 chain with S36T, K41M, Q144K, Q155H, F193S, G195R, K200E, N201Y, Q202H, F206L
B4: variant PD-L1 ECD-Fc I36T, I83T, M97L, K144E, P198T (Fc fusion)
chain: B1 chain with S36T, K41M, I83T, Q144E, G195R, P198T, K200E, Q202H, F206L
B5: variant PD-L1 ECD-Fc N17D, M97L, S99G (Fc fusion)
chain: B1 chain with N17D, S36I, K41M, S99G, Q144K, G195R, K200E, Q202H, F206L
B6: variant PD-L1 ECD-Fc K57R, S99G, R195G (Fc fusion)
chain: B1 chain with S36I, K41M, K57R, L97M, S99G, Q144K, K200E, Q202H, F206L
B7: variant PD-L1 ECD-Fc Y10F, M18V, S99G, Q138R, T203A (Fc fusion)
chain: FTVTVPKDLFVVEYGSNVTIECKFPVEKQLDLAALIVYWEMEDKNIIQFVHGEEDLKVQHSSYRQRARLLKDQLSLGNAALQITDVKLQDAGVYRCMIGYGGADYKRITVKVNAPYNKINQRILVVDPVTSEHELTCRAEGYPKAEVIWTSSDHQVLSGKTTTTNSKREEKLFNVTSTLRINTTTNEIFYCTFRRLDPEENHAAELVIPELPLAHPPNER
B8: variant PD-L2 IgV-Fc H15Q (Fc fusion)
chain: LFTVTVPKELYIIEQGSNVTLECNFDTGSHVNLGAITASLQKVENDTSPHRERATLLEEQLPLGKASFHIPQVQVRDEGQYQCIIIYGVAWDYKYLTLKVKA
B9: variant PD-L2 IgV-Fc H15Q, C23S, I86T (Fc fusion)
chain: B8 chain with C23S, I86T
B10: Wild Type PD-L2 IgV (Fc fusion)
chain: B8 chain with Q15H
B11: variant PD-L2 IgV-Fc H15Q, K65R (Fc fusion)
chain: B8 chain with K65R
B12: variant PD-L2 IgV-Fc H15Q, Q72H, Q74R, R76G, I86T (Fc fusion)
chain: B8 chain with Q72H, Q74R, R76G, I86T
B13: variant PD-L2 IgV-Fc G28V, Q72H, R76G, I86T (Fc fusion)
chain: B8 chain with Q15H, G28V, Q72H, R76G, I86T
B14: variant PD-L2 IgV-Fc S67L, V89D (Fc fusion)
chain: B8 chain with Q15H, S67L, V89D
B15: variant PD-L2 IgV-Fc H15Q, T47A (Fc fusion)
chain: B8 chain with T47A
B16: variant PD-L2 IgV-Fc E44D, V89D, W91R (Fc fusion)
chain: B8 chain with Q15H, E44D, V89D, W91R
B17: variant PD-L2 IgV-Fc I13V, H15Q, E44V, T47A, Q82R, V89D (Fc fusion)
chain: B8 chain with I13V, E44V, T47A, Q82R, V89D
B18: variant PD-L2 IgV-Fc H15Q, Q72H, V89D (Fc fusion)
chain: B8 chain with Q72H, V89D
B19: variant PD-L2 IgV-Fc I13V, H15Q, T47A, Q82R, V89D (SEQ ID NO 725) (Fc fusion)
chain: B8 chain with I13V, N24D, Q82R, V89D
B20: variant PD-L2 IgV-Fc H15Q, E44D, R76G, I85F (Fc fusion)
chain: B8 chain with E44D, R76G, I85F
B21: variant PD-L2 IgV-Fc I13V, E44D, Q82R, V89D (Fc fusion)
chain: B8 chain with I13V, Q15H, E44D, Q82R, V89D
B22: variant PD-L2 IgV-Fc S67L, I85F (Fc fusion)
chain: B8 chain with Q15H, S67L, I85F
B23: variant PD-L2 IgV-Fc N24D (Fc fusion)
chain: B8 chain with Q15H, N24D
B24: variant PD-L2 IgV-Fc E44D (Fc fusion)
chain: B8 chain with Q15H, E44D
B25: variant PD-L2 IgV-Fc H15Q, V89D (Fc fusion)
chain: B8 chain with V89D
B26: variant PD-L2 IgV-Fc Q82R, V89D (Fc fusion)
chain: B8 chain with Q15H, Q82R, V89D
B27: variant PD-L2 IgV-Fc V89D (Fc fusion)
chain: B8 chain with Q15H, V89D
B28: variant PD-L2 IgV-Fc I13V, H15Q, R76G, I85F (Fc fusion)
chain: B8 chain with I13V, R76G, I85F
B29: variant PD-L2 IgV-Fc H15Q, S67L, R76G, I85F (Fc fusion)
chain: B8 chain with S67L, R76G, I85F
B30: variant PD-L2 IgV-Fc H15Q, T47A, Q72H, R76G, I86T (Fc fusion)
chain: B8 chain with T47A, Q72H, R76G, I86T
B31: variant PD-L2 IgV-Fc I13V, H15Q, T47A, R76G, V89D (Fc fusion)
chain: B8 chain with I13V, T47A, R76G, V89D
B32: variant PD-L2 IgV-Fc H15Q, N24S, T47A, Q72H, R76G, V89D (Fc fusion)
chain: B8 chain with N24S, T47A, Q72H, R76G, V89D
B33: variant PD-L2 IgV-Fc H15Q, Q82R, V89D (Fc fusion)
chain: B8 chain with Q82R, V89D
B34: variant PD-L2 IgV-Fc I13V, H15Q, T37A, E44D, S48C, S67L, Q82R, V89D (Fc fusion)
chain: B8 chain with I13V, T37A, E44D, S48C, S67L, Q82R, V89D
B35: WT CD80 IgV/IgC-Fc (Fc fusion)
chain: VIHVTKEVKEVATLSCGHNVSVEELAQTRIYWQKEKKMVLTMMSGDMNIWPEYKNRTIFDITNNLSIVILALRPSDEGTYECVVLKYEKDAFKREHLAEVTLSVKADFPTPSISDFEIPTSNIRRIICSTSGGFPEPHLSWLENGEELNAINTTVSQDPETELYAVSSKLDFNMTTNHSFMCLIKYGHLRVNQTFNWNTTKQEHFPDN

Each binder was assayed against PD-1 expressed on cells (human) (assay: flow cytometry, cells expressing PD-1).
Chain of PD-1 expressed on cells (human) (chain, as listed by the source): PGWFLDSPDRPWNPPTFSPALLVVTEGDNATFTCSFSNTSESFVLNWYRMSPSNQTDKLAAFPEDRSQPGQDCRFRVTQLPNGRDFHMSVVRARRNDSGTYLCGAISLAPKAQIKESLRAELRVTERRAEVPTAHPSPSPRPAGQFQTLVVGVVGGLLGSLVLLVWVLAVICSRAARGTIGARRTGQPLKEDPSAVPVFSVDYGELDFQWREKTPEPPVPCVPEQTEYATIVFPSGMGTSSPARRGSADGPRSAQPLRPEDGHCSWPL

| MFI at 20 nM | Fold Change Compared to WT PD-L1 | Binder |
| --- | --- | --- |
| 3500 |  | B1 |
|  | 0.7 | B2 |
| 69 | 0 | B3 |
| 62 |  | B4 |
|  | 3.2 | B5 |
|  | 0.8 | B6 |
| 70 | 0 | B7 |

These binders were tested against CD80 expressed on cells (Homo sapiens) (assay: flow cytometry, cells expressing CD80).

| Fold Change Compared to WT PD-L1 | MFI at 20 nM | Binder |
| --- | --- | --- |
| 105 |  | B2 |
| 9.3 | 1250 | B3 |
| 547 |  | B5 |
| 81.8 | 11000 | B6 |
| 3.1 | 412 | B7 |

Each binder was assayed against PD-1 expressed on cells (human) (assay: flow cytometry, Jurkat/PD-1 cells).

| Fold increase over wildtype PD-L2 IgV-Fc | MFI at 50 nM | Binder |
| --- | --- | --- |
| 1.63 | 16000 | B8 |
|  | 830 | B9 |
|  | 9840 | B10 |
| 1.37 | 13500 | B11 |
|  | 4050 | B12 |
| 0.57 | 5560 | B13 |
|  | 16000 | B14 |
| 2.7 | 26600 | B15 |
|  | 614 | B16 |
|  | 61000 | B17 |
|  | 12600 | B18 |
| 6.2 | 61000 | B19 |
|  | 2880 | B20 |
| 4.59 | 45200 | B21 |
| 0.05 | 529 | B22 |
| 0.14 | 1410 | B23 |
| 0.3 | 2930 | B24 |
| 1.8 | 17700 | B25 |
|  | 45000 | B26 |
| 0.34 | 3360 | B27 |
| 0.48 | 4740 | B28 |
| 0.29 | 2870 | B29 |
| 3.26 | 32100 | B30 |

These binders were tested against PD-1-Fc (Homo sapiens) (assay: ForteBio, PD-1-Fc).
Chain of PD-1-Fc (Homo sapiens) (chain, as listed by the source limits assumed): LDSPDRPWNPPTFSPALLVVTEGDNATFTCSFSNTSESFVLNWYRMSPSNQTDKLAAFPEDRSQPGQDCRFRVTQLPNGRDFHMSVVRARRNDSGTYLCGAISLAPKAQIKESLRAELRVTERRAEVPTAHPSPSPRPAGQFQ

| Fortebio binding to PD-1-Fc Response Units (Response Units) | Binder |
| --- | --- |
| 0.007 | B8 |
| -0.001 | B11 |
| 0.003 | B13 |
| 0.016 | B15 |
| 1.45 | B19 |
| 1.28 | B21 |
| -0.005 | B22 |
| 1.6 | B31 |
| 0.4 | B32 |
| -0.039 | B23 |
| -0.006 | B24 |
| 1.2 | B33 |
| 0.31 | B25 |
| 1.25 | B34 |
| 0.005 | B27 |
| -0.04 | B28 |
| 0.025 | B29 |
| 0.512 | B30 |

Each binder was assayed against CD28 (human) (assay: flow cytometry on HEK293 cells transfected with CD28).

| MFI at 66.6 nM | Binder |
| --- | --- |
| 3070 | B35 |
